The target in assay [1] is SARS-CoV-2 S protein S1 (SARS-CoV-2, ancestral (WT), UniProt P0DTC2). Kind of assay: ELISA. Conditions: both partners purified.
Assay [2] concerns the target SARS-CoV-2 S protein receptor binding domain (RBD) (SARS-CoV-2, ancestral (WT), UniProt P0DTC2). Nature of the assay: crystal structure. Conditions: both partners purified.

The text below walks through data of article PMC9802656 (Science Translational Medicine, 2022).

B1: monoclonal antibody m31A7 (IgG) (antibody, V domains shown)
VH: EVQLQQSGPEMVKPGASVKISCKTSGYTFTEYTIYWVKQSHGKSLEWLGGINPNIGDTTYNQKFKGKATLTVDTSSSTAYMELRSLTSEDSAVYYCAREVYNYSFAYWGQGTLVTVSA
VL: DIVMSQSPSSLAVSVGEKVTMSCKSSQSLLYSSNQKNYLAWYQQKLGQTPKLLIYWASSRESGVPDRFTGSGSGTDFTLTISSVRAEDLAVYYCQQYYRYPLTFGVGTKLELK
In the case of B1, the binding result in assay [1] is “binds”.

B2: m31A7 Fab (Fab, V domains shown)
VH: B1 VH
VL: B1 VL
Regarding B2, the binding result in assay [2] is “binds”.
